In patent US11130793B2, “GLP-1/GLP-2 dual agonists” (Zealand Pharma A/S, priority 2016, dated 2021):
Square brackets hold non-standard residues; d marks the D form. Aib = CC(C)(N)C(=O)O

T1: human GLP-2 receptor (hGLP2-R) (human, UniProt O95838)
T1 sequence: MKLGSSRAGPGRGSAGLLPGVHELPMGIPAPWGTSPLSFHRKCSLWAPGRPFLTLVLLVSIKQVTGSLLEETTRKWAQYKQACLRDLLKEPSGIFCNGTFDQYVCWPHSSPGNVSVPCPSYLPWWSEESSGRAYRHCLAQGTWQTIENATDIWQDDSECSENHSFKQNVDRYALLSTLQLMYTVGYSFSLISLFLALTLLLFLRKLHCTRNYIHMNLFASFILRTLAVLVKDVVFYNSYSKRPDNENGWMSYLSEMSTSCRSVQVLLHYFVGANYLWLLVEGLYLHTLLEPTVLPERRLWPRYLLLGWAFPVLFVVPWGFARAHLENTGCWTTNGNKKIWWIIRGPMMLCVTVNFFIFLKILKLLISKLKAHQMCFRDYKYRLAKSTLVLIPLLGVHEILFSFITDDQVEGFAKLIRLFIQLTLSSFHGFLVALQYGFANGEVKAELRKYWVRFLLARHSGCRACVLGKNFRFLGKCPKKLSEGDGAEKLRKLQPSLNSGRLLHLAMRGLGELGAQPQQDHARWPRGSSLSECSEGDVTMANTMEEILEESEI


Experiments:
[1] = molecular target: human glucagon-like peptide 1 receptor (GLP-1R) (human, UniProt P43220); assay: cell-based or functional assay
[2] = molecular target: T1, human GLP-2 receptor (hGLP2-R); assay: cell-based or functional assay

| EC50 GLP-1 (nM); cAMP AlphaScreen [1] [nM] | EC50 GLP-2 (nM); cAMP AlphaScreen [2] [nM] | Binder |
| --- | --- | --- |
| 0.046 | 0.034 | H-H[Aib]EGTFSSELATILDEQAARDFIAWLIAHKITD-OH (SMILES CC[C@H](C)[C@H](NC(=O)[C@H](CC(C)C)NC(=O)[C@H](Cc1c[nH]c2ccccc12)NC(=O)[C@H](C)NC(=O)[C@@H](NC(=O)[C@H](Cc1ccccc1)NC(=O)[C@H](CC(=O)O)NC(=O)[C@H](CCCNC(=N)N)NC(=O)[C@H](C)NC(=O)[C@H](C)NC(=O)[C@H](CCC(N)=O)NC(=O)[C@H](CCC(=O)O)NC(=O)[C@H](CC(=O)O)NC(=O)[C@H](CC(C)C)NC(=O)[C@@H](NC(=O)[C@@H](NC(=O)[C@H](C)NC(=O)[C@H](CC(C)C)NC(=O)[C@H](CCC(=O)O)NC(=O)[C@H](CO)NC(=O)[C@H](CO)NC(=O)[C@H](Cc1ccccc1)NC(=O)[C@@H](NC(=O)CNC(=O)[C@H](CCC(=O)O)NC(=O)C(C)(C)NC(=O)[C@@H](N)Cc1c[nH]cn1)[C@@H](C)O)[C@@H](C)O)[C@@H](C)CC)[C@@H](C)CC)C(=O)N[C@@H](C)C(=O)N[C@@H](Cc1c[nH]cn1)C(=O)N[C@@H](CCCCN)C(=O)N[C@H](C(=O)N[C@H](C(=O)N[C@@H](CC(=O)O)C(=O)O)[C@@H](C)O)[C@@H](C)CC) [Compound 2] |
| 0.1 | 0.034 | H-H[Aib]EGSFTSELATILDEQAARDFIAWLYRHKITD-OH (not fully specified; printed as Hy-H[Aib]EGSFTSELATILDEQAARDFIAWLYRHKITD-OH) [Compound 30] |
| 0.013 | 0.19 | H-H[Aib]EGTFTSELATILDEQAARDFIAWLQAQKITD-OH (SMILES CC[C@H](C)[C@H](NC(=O)[C@H](Cc1ccccc1)NC(=O)[C@H](CC(=O)O)NC(=O)[C@H](CCCNC(=N)N)NC(=O)[C@H](C)NC(=O)[C@H](C)NC(=O)[C@H](CCC(N)=O)NC(=O)[C@H](CCC(=O)O)NC(=O)[C@H](CC(=O)O)NC(=O)[C@H](CC(C)C)NC(=O)[C@@H](NC(=O)[C@@H](NC(=O)[C@H](C)NC(=O)[C@H](CC(C)C)NC(=O)[C@H](CCC(=O)O)NC(=O)[C@H](CO)NC(=O)[C@@H](NC(=O)[C@H](Cc1ccccc1)NC(=O)[C@@H](NC(=O)CNC(=O)[C@H](CCC(=O)O)NC(=O)C(C)(C)NC(=O)[C@@H](N)Cc1c[nH]cn1)[C@@H](C)O)[C@@H](C)O)[C@@H](C)O)[C@@H](C)CC)C(=O)N[C@@H](C)C(=O)N[C@@H](Cc1c[nH]c2ccccc12)C(=O)N[C@@H](CC(C)C)C(=O)N[C@@H](CCC(N)=O)C(=O)N[C@@H](C)C(=O)N[C@@H](CCC(N)=O)C(=O)N[C@@H](CCCCN)C(=O)N[C@H](C(=O)N[C@H](C(=O)N[C@@H](CC(=O)O)C(=O)O)[C@@H](C)O)[C@@H](C)CC) [Compound 26] |
| 0.11 | 0.024 | H-H[Aib]EGSFTSELATILDEQAARDFIAWLYAHKITD-OH (SMILES CC[C@H](C)[C@H](NC(=O)[C@H](Cc1ccccc1)NC(=O)[C@H](CC(=O)O)NC(=O)[C@H](CCCNC(=N)N)NC(=O)[C@H](C)NC(=O)[C@H](C)NC(=O)[C@H](CCC(N)=O)NC(=O)[C@H](CCC(=O)O)NC(=O)[C@H](CC(=O)O)NC(=O)[C@H](CC(C)C)NC(=O)[C@@H](NC(=O)[C@@H](NC(=O)[C@H](C)NC(=O)[C@H](CC(C)C)NC(=O)[C@H](CCC(=O)O)NC(=O)[C@H](CO)NC(=O)[C@@H](NC(=O)[C@H](Cc1ccccc1)NC(=O)[C@H](CO)NC(=O)CNC(=O)[C@H](CCC(=O)O)NC(=O)C(C)(C)NC(=O)[C@@H](N)Cc1c[nH]cn1)[C@@H](C)O)[C@@H](C)O)[C@@H](C)CC)C(=O)N[C@@H](C)C(=O)N[C@@H](Cc1c[nH]c2ccccc12)C(=O)N[C@@H](CC(C)C)C(=O)N[C@@H](Cc1ccc(O)cc1)C(=O)N[C@@H](C)C(=O)N[C@@H](Cc1c[nH]cn1)C(=O)N[C@@H](CCCCN)C(=O)N[C@H](C(=O)N[C@H](C(=O)N[C@@H](CC(=O)O)C(=O)O)[C@@H](C)O)[C@@H](C)CC) [Compound 28] |
| 0.004 | 0.041 | H-H[Aib]EGTFTSELATILDEQAARDFINWLIAHKITD-OH (SMILES CC[C@H](C)[C@H](NC(=O)[C@H](CC(C)C)NC(=O)[C@H](Cc1c[nH]c2ccccc12)NC(=O)[C@H](CC(N)=O)NC(=O)[C@@H](NC(=O)[C@H](Cc1ccccc1)NC(=O)[C@H](CC(=O)O)NC(=O)[C@H](CCCNC(=N)N)NC(=O)[C@H](C)NC(=O)[C@H](C)NC(=O)[C@H](CCC(N)=O)NC(=O)[C@H](CCC(=O)O)NC(=O)[C@H](CC(=O)O)NC(=O)[C@H](CC(C)C)NC(=O)[C@@H](NC(=O)[C@@H](NC(=O)[C@H](C)NC(=O)[C@H](CC(C)C)NC(=O)[C@H](CCC(=O)O)NC(=O)[C@H](CO)NC(=O)[C@@H](NC(=O)[C@H](Cc1ccccc1)NC(=O)[C@@H](NC(=O)CNC(=O)[C@H](CCC(=O)O)NC(=O)C(C)(C)NC(=O)[C@@H](N)Cc1c[nH]cn1)[C@@H](C)O)[C@@H](C)O)[C@@H](C)O)[C@@H](C)CC)[C@@H](C)CC)C(=O)N[C@@H](C)C(=O)N[C@@H](Cc1c[nH]cn1)C(=O)N[C@@H](CCCCN)C(=O)N[C@H](C(=O)N[C@H](C(=O)N[C@@H](CC(=O)O)C(=O)O)[C@@H](C)O)[C@@H](C)CC) [Compound 33] |
| 0.02 | 0.078 | H-H[Aib]EGSFTSELATILDGKAARDFIAWLIAHKITD-OH (SMILES CC[C@H](C)[C@H](NC(=O)[C@H](CC(C)C)NC(=O)[C@H](Cc1c[nH]c2ccccc12)NC(=O)[C@H](C)NC(=O)[C@@H](NC(=O)[C@H](Cc1ccccc1)NC(=O)[C@H](CC(=O)O)NC(=O)[C@H](CCCNC(=N)N)NC(=O)[C@H](C)NC(=O)[C@H](C)NC(=O)[C@H](CCCCN)NC(=O)CNC(=O)[C@H](CC(=O)O)NC(=O)[C@H](CC(C)C)NC(=O)[C@@H](NC(=O)[C@@H](NC(=O)[C@H](C)NC(=O)[C@H](CC(C)C)NC(=O)[C@H](CCC(=O)O)NC(=O)[C@H](CO)NC(=O)[C@@H](NC(=O)[C@H](Cc1ccccc1)NC(=O)[C@H](CO)NC(=O)CNC(=O)[C@H](CCC(=O)O)NC(=O)C(C)(C)NC(=O)[C@@H](N)Cc1c[nH]cn1)[C@@H](C)O)[C@@H](C)O)[C@@H](C)CC)[C@@H](C)CC)C(=O)N[C@@H](C)C(=O)N[C@@H](Cc1c[nH]cn1)C(=O)N[C@@H](CCCCN)C(=O)N[C@H](C(=O)N[C@H](C(=O)N[C@@H](CC(=O)O)C(=O)O)[C@@H](C)O)[C@@H](C)CC) [Compound 31] |
| 0.12 | 0.37 | H-H[Aib]EGTFTSELSTILDEQAARDFIAWLHAQKITD-OH (not fully specified; printed as Hy-H[Aib]EGTFTSELSTILDEQAARDFIAWLHAQKITD-OH) [Compound 27] |
| 0.038 | 0.15 | H-H[Aib]EGTFSSELATILDGKAARDFIAWLIAHKITD-OH (SMILES CC[C@H](C)[C@H](NC(=O)[C@H](CC(C)C)NC(=O)[C@H](Cc1c[nH]c2ccccc12)NC(=O)[C@H](C)NC(=O)[C@@H](NC(=O)[C@H](Cc1ccccc1)NC(=O)[C@H](CC(=O)O)NC(=O)[C@H](CCCNC(=N)N)NC(=O)[C@H](C)NC(=O)[C@H](C)NC(=O)[C@H](CCCCN)NC(=O)CNC(=O)[C@H](CC(=O)O)NC(=O)[C@H](CC(C)C)NC(=O)[C@@H](NC(=O)[C@@H](NC(=O)[C@H](C)NC(=O)[C@H](CC(C)C)NC(=O)[C@H](CCC(=O)O)NC(=O)[C@H](CO)NC(=O)[C@H](CO)NC(=O)[C@H](Cc1ccccc1)NC(=O)[C@@H](NC(=O)CNC(=O)[C@H](CCC(=O)O)NC(=O)C(C)(C)NC(=O)[C@@H](N)Cc1c[nH]cn1)[C@@H](C)O)[C@@H](C)O)[C@@H](C)CC)[C@@H](C)CC)C(=O)N[C@@H](C)C(=O)N[C@@H](Cc1c[nH]cn1)C(=O)N[C@@H](CCCCN)C(=O)N[C@H](C(=O)N[C@H](C(=O)N[C@@H](CC(=O)O)C(=O)O)[C@@H](C)O)[C@@H](C)CC) [Compound 32] |
| 0.044 | 0.11 | H-H[Aib]EGTFTDELATILDEQAARDFIAWLQAQKITD-OH (not fully specified; printed as Hy-H[Aib]EGTFTDELATILDEQAARDFIAWLQAQKITD-OH) [Compound 29] |
